In PMC4333373:

How the values were obtained:
[1] = biological target: T1, ParB (Spo0J) (Bacillus subtilis 168) (UniProt P26497); assay: EMSA; details: 50 mM Hepes-KOH pH 7.5, 100 mM KCl, 2.5 mM MgCl2, 0.1 mg/ml BSA, 1 mM DTT, 20 nM DNA, EMSA also 2.5% Ficoll, room temperature 30 min then ice 5 min, gel at 4 C
T1 sequence: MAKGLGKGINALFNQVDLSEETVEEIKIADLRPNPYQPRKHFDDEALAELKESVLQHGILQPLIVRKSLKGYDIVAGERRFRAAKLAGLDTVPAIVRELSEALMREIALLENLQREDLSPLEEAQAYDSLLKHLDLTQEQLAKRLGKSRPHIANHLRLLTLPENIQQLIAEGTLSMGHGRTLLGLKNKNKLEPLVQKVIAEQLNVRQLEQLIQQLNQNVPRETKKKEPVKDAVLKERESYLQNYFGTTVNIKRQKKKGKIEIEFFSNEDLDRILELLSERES

[2] = biological target: T1, ParB (Spo0J) (Bacillus subtilis 168); assay: fluorescence intensity (Cy3); details: 50 mM Hepes-KOH pH 7.5, 100 mM KCl, 2.5 mM MgCl2, 0.1 mg/ml BSA, 1 mM DTT, 20 nM DNA, EMSA also 2.5% Ficoll, room temperature 30 min then ice 5 min, gel at 4 C

Substance: GGTACAAAAAGTGATTGCGGAGCAGCTCAATGTTCGCCAACTTGAGCAGCTGATTCAGCAGTTGAATCAGAATGTTCCACGTGAAACAAAGAAAAAAGAACCTGTGAAAGATGCGGTTCTAAAAGAACGGGAATCCTATCTCCAAAA (double strand) [147-bp parS]
- Kd [1]: 100 nM
- binding [1]: binds

Substance: Cy3 147-bp non-specific (scrambled parS)
- Kd ([2]; apparent Kd of ParB2, Hill h = 3.4 ± 0.4, 2.5 mM Mg2+): 275 nM

Substance: 147-bp parS
- Kd ([1]; specific complex, TBM gel, 2.5 mM Mg2+): 100 nM

Substance: Cy3 147-bp parS
- Kd [2]: 240 nM

Substance: TTTTGGAGATAGGATTCCCGTTCTTTTAGAACCGCATCTTTCACAGGTTCTTTTTTCTTTGTCTCCCTGGGCACGTTCTGATTCAACTGCTGAATCAGCTGCTCAAGTTGGCGAACATTGAGCTGCTCCGCAATCACTTTTTGTACC (double strand) [Cy3 147-bp non-specific (scrambled parS)]
- Kd [2]: 275 nM

Substance: TTTTGGAGATAGGATTCCCGTTCTTTTAGAACCGCATCTTTCACAGGTTCTTTTTTCTTTGTCTCCCTGGGCACGTTCTGATTCAACTGCTGAATCAGCTGCTCAAGTTGGCGAACATTGAGCTGCTCCGCAATCACTTTTTGTACC (double strand) [147-bp non-specific (scrambled parS)]
- binding [1]: binds

Substance: TTTTGGAGATAGGATTCCCGTTCTTTTAGAACCGCATCTTTCACAGGTTCTTTTTTCTTTGTTTCACGTGGAACATTCTGATTCAACTGCTGAATCAGCTGCTCAAGTTGGCGAACATTGAGCTGCTCCGCAATCACTTTTTGTACC (double strand) [Cy3 147-bp parS]
- Kd [2]: 240 nM
